# Laboratory results published in paper PMC2933323 (Nature structural & molecular biology, 2010).
# B1: phosRb^771–928 (domain or fragment)
# chain: YASTRPPTLSPIPHIPRSPYKFPSSPLRIPGGNIYISPLKSPYKISEGLPTPTKMTPRSRILVSIGESFGTSEKFQKINQMVCNSDRVLKRSAEGSNPPKPLKKLRFDIEGSDEADGSKHLPGESKFQQKLAEMTSTRTRMQKQKMNDSMDTSNKEEK
# B2: phosRb^771–874 (domain or fragment)
# chain: YASTRPPTLSPIPHIPRSPYKFPSSPLRIPGGNIYISPLKSPYKISEGLPTPTKMTPRSRILVSIGESFGTSEKFQKINQMVCNSDRVLKRSAEGSNPPKPLKK
# Columns and labels:
# [1] = target: endogenous Rb of CV-1 cells (African green monkey (endogenous in CV-1)); assay: co-IP
# [2] = target: Rb expressed from CMV-Rb in Saos-2 cells (UniProt P06400); assay: co-IP
# [3] = target: catalytic subunit of protein phosphatase 1 (PP1c), α isoform (human) (UniProt P62136)
# Sequence of catalytic subunit of protein phosphatase 1 (PP1c), α isoform (human) (P62136 1-300): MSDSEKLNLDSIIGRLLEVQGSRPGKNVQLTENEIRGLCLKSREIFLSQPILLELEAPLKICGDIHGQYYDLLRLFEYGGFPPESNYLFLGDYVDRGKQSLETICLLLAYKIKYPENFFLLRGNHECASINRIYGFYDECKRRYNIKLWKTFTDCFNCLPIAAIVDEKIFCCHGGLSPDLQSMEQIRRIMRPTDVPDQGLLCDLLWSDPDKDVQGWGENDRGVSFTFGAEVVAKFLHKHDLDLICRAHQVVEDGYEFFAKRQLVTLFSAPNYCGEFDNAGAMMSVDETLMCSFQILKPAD
# [4] = target: catalytic subunit of protein phosphatase 1 (PP1c), α isoform (human, UniProt P62136 1-300); assay: ITC
molecule,measurement,setting,value
endogenous PP1 of CV-1 cells (enzyme),"PP1 co-precipitated, percent of the immunoprecipitated Rb",[1],2%
PP1 in transfected Saos-2 cells (exogenous myc-PP1c together with endogenous PP1) (from UniProt P62136 1-330) (enzyme),"PP1 co-precipitated, percent of the immunoprecipitated Rb",[2],30%
B1,apparent KM of dephosphorylation by PP1c (steady-state analysis),[3],6 µM
KPLKKLRFDIEGS [Rb^870–882 peptide],Kd,[4],1200 nM
B2,apparent KM of dephosphorylation by PP1c (steady-state analysis),[3],30 µM
